Assay results published in US8809529B2, “Imidazo[1,2-α]pyrazine derivatives” (Promega Corporation, priority 2010, dated 2014).

How the values were obtained:
[1] = Brightness and relative specificity of 9B8 and 9B8 opt+K33N variants in E. coli lysates; type: biochemical; settings: for Fold over coelenterazine / Fold over 9B8: bacterial lysates; for Fold over coelenterazine: PBI-3939 luminescence divided by native coelenterazine luminescence; for Fold over 9B8: luminescence normalized to 9B8 opt
Procedure: Additional variants with improved relative specificity to novel PBI-3939 were generated as described previously by saturating amino acid positions 18, 68, 72, 75, and 90 in variant 9B8. […] Relative specificity was determined from the ratio of the luminescence of the variant with PBI-3939 to the luminescence of the variant with native coelenterazine, normalized to the ratio of corresponding luminescence of 9B8. Table 8 lists 9B8 variants (“Variant”) with at least 1.1× fold-increase in relative specificity for PBI-3939. […] 9B8 variants with amino acid substitutions K, D, F, G, Y, W, and H at position 18 had the highest fold improvement in relative specificity.
A new OgLuc library was created using 9B8opt+K33N as a starting template. The random library was created using DIVERSIFY® PCR Random Mutagenesis Kit (ClonTech; Catalog #630703). Condition 5 (as listed in the user manual) was used to generate additional variants, and the average mutation rate was calculated to be 2.6 mutations per gene by compiling sequence data from 83 randomly selected clones. This PCR library was cloned into the pF4Ag-based, non-fusion vector background described previously and the sandwich background, i.e., Id-OgLuc-HT7 (described in Example 45). Variants in the pF4Ag-base non-fusion vector background are designated with (NF). Variants in the sandwich vector background are designated with (F). In order to clone the PCR product into both vectors, an amino acid, i.e., a glycine, was appended to the variant sequence in pF4Ag, generating a new position 170 in the OgLuc variant (“170G”). The 170G is present in the sandwich construct, but in this case is considered part of the linker between OgLuc and HT7. For each library, 4,400 E. coli clones were assayed as described previously with the following exceptions. […] The assay buffer contained 100 mM MES pH 6.0 instead of HEPES, and 35 mM thiourea. The assay volumes were as follows: 10 μL cells, 40 μL lysis buffer, and 50 μL assay buffer.
Based on the above data, further combination variants were designed and generated (see Table 10) in the context of the pF4Ag-based non-fusion vector background without the 170G. The variants were analyzed in E. coli, HEK293 and NIH3T3 cells as described above and compared to 9B8 opt+K33N. The variants were also examined for luminescence with native coelenterazine.
E. coli lysates containing the variants were prepared and analyzed as described previously. Luminescence generated from the lysates was measured using the novel PBI-3939 and native coelenterazine as substrates. The luminescence of the variants was normalized to the luminescence generated by 9B8 opt (Table 12). The relative specificity of the variants for PBI-3939 and native coelenterazine was calculated by dividing the luminescence of the variants using PBI-3939 as a substrate with the luminescence of the variants using native coelenterazine as a substrate (Table 12).

[2] = Stability of secreted OgLuc variants in saved media; type: physicochemical; settings: secreted variant in media
Procedure: To determine if the secretion signal sequence of OgLuc facilitates its secretion, the OgLuc variants 9B8, V2 and L27V were cloned into pF4Ag containing an N-terminal OgLuc secretion signal sequence. The variants were also cloned into vectors without the secretion signal sequence. CHO or HeLa cells were then plates at 100,000 cells/well in 1 mL F12 media with 10% FBS and 1× sodium pyruvate (CHO cells) or DMEM with 10% FBS and 1× sodium pyruvate (HeLa cells) into 12-well plates and incubated overnight at 37° C., 5% CO2.
After the overnight incubation, the cells were transfected with 1 μg plasmid DNA containing 9B8, V2, or L27V with or without the secretion signal sequence using the TRANSIT®-LT1 transfection reagent (Minis Bio) and OPTI-MEM® media (Invitrogen). The cells were again incubated overnight at 37° C., 5% CO2.
After the second overnight incubation, the media was removed and saved for analysis. […] To 10 μL of cell lysate or saved media from each sample, 50 μL assay buffer with 40 μM FBI-3939 was added, and luminescence measured as described above.
To determine the stability of the secreted variants, 150 μL aliquots of the saved media from each sample was placed at 37° C. or 50° C. The aliquots were then removed at different time points ([…]), frozen on thy ice, and kept at −20° C. until assayed. To assay for stability, the media aliquots were thawed to room temperature, and 10 μL of each aliquot was mixed with assay buffer with PBI-3939 (pH 6.0) as described above. Luminescence was measured as above, and the half-life (t50) determined (Table 34).

HEK293 cells [3] = test: Brightness on a per mole basis in HEK293 cells (HT7 fusions); type: cell-based, human
HEK293 cells [4] = test: Stability of 9B8 and V2 in HEK293 cells; type: cell-based, human; settings: HEK293 cells lysed in assay reagent, 20 μM PBI-3939
Procedure: The variants 9B8 and V2 (9B8+K33N+T39T+K43R+Y68D) were also screened in HEK293 cells to determine their stability. The variants were cloned into pF4Ag and transfected into HEK293 cells (15,000 cells/well) as previously described. After transfection, the cells were lysed in assay reagent (as previously described; no PBI-3939), and luminescence measured using the assay reagent with 20 μM PBI-3939. […] This is consistent with the half-life seen for these variants in E. coli (Table 26).

[5] = tested on: antioxidant response element (ARE); test: ARE transcriptional reporter, reverse transfection, HEK293 cells; type: cell-based, human; settings: for baseline: 24 h, 100 ng DNA
Procedure: HEK293 cells were trypsinized (T75 flask, 3 mL trypsin) and resuspended in […] (approximately 8.9×10^6 total cells) in medium containing DMEM+10% FBS+1×NEAA. Each transcriptional reporter was prepared for transfection by mixing 1.2 mL OPTI-MEM®, 12 μL transcription reporter DNA (100 ng) and 36 μL FUGENE® HD transfection reagent together and incubated at room temperature for 35 min. Following incubation, 624 μL of the transfection/reporter DNA mixture was added to 12 mL of cell suspension and mixed by inversion. After mixing, 100 μL of the cell/DNA mixture was added to wells of a 96-well plate (2 constructs/plate). The cells were incubated at 37° C. for 22 hrs. Tert-butylhydroquinone (a Nrf2 stabilizer; tBHQ; 1 μM (“baseline”) or 20 μM) or sulphoraphane, (an organosulfer antioxidant known to activate Nrf2; 1 μM (“baseline”) or 20 μM) in OPTI-MEM® was added to each well and incubated at 37° C. for 24 hrs. Cells were lysed with 100 μL lytic reagent as described above for the forward transfection. Luminescence was measured on a GLOMAX® Luminometer.

B1: L27V: 9B8 opt+K33N variant with L27V, T39T, K43R, Y68D (protein)
chain: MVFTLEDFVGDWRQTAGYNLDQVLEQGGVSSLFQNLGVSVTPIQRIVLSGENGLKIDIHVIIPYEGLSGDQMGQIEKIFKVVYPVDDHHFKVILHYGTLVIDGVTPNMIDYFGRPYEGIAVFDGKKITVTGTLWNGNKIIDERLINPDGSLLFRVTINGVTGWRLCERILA
Question: Which Fold over coelenterazine [1] does the source give for B1 here?
Answer: Its Fold over coelenterazine is 110.

Question: What about the “Fold over 9B8” value [1] of the same molecule?
Answer: The value was 1.8.

Question: And the “Fold over 9B8 opt + K33N: E. coli” value ([1]; luminescence, PBI-3939)?
Answer: Its value is 0.9.

Question: What about the “Fold over Native Coelenterazine: E. coli” value ([1]; relative specificity for PBI-3939) of the same molecule?
Answer: The value was 85.2.

Question: What about the “½ life 37° C.” value [2] of the same molecule?
Answer: The value was 17 days.

Question: What about the “½ life 50° C.” value [2] of the same molecule?
Answer: Its value is 11 h.

B2: 9B8: IV variant with Q18L, F68Y, L72Q, M75K; in Tables 12, 22, 23, 26, 27 “9B8” stands for 9B8 opt (protein)
chain: MVFTLEDFVGDWRQTAGYNLDQVLEQGGLSSLFQKLGVSVTPIQKIVLSGENGLKIDIHVIIPYEGLSGYQMGQIEKIFKVVYPVDDHHFKVILHYGTLVIDGVTPNMIDYFGRPYEGIAVFDGKKITVTGTLWNGNKIIDERLINPDGSLLFRVTINGVTGWRLCERILA
Question: For B2, which Fold over coelenterazine [1] is on record?
Answer: Its Fold over coelenterazine is 7.

Question: And the “Fold over 9B8” value [1]?
Answer: Its value is 1.0.

Question: What about the “½ life 37° C.” value [2] of the same molecule?
Answer: The value was 8 days.

Question: What about the “½ life 50° C.” value [2] of the same molecule?
Answer: Its value is 3 h.

Question: What about the “brightness relative to Luc2” value (HEK293 cells [3]) of the same molecule?
Answer: Its value is “approximately 15 fold”.

Question: And the “brightness relative to hRL” value (HEK293 cells [3])?
Answer: Its value is over 100 fold.

Question: What about the half-life (HEK293 cells [4]) of the same molecule?
Answer: Its half-life is 5.2 h.

B3: 9B8 opt: codon optimized version of the 9B8 variant (protein)
chain: MVFTLEDFVGDWRQTAGYNLDQVLEQGGLSSLFQKLGVSVTPIQKIVLSGENGLKIDIHVIIPYEGLSGYQMGQIEKIFKVVYPVDDHHFKVILHYGTLVIDGVTPNMIDYFGRPYEGIAVFDGKKITVTGTLWNGNKIIDERLINPDGSLLFRVTINGVTGWRLCERILA
Question: For B3, which baseline ([5]; 1 μM sulphoraphane) is on record?
Answer: Its baseline is 15,600,000.

Question: What about the baseline ([5]; 1 μM tBHQ) of the same molecule?
Answer: The baseline was 15,100,000.

Question: What about the Response ([5]; sulphoraphane) of the same molecule?
Answer: The Response was 5.8.

Question: And the Response ([5]; tBHQ)?
Answer: The Response was 8.
